Sequences and labels used below:
B1: library; numbered along this chain (parent)
chain: MEVVDPQQLGMFTEGELMSVGMDTFIHRIDSTEVIYQPRRKRAKLIGKYLMGDLLGEGSYGKVKEVLDSETLCRRAVKILKKKKLRRIPNGEANVKKEIQLLRRLRHKNVIQLVDVLYNEEKQKMYMVMEYCVCGMQEMLDSVPEKRFPVCQAHGYFCQLIDGLEYLHSQGIVHKDIKPGNLLLTTGGTLKISDLGVAEALHPFAADDTCRTSQGSPAFQPPEIANGLDTFSGFKVDIWSAGVTLYNITTGLYPFEGDNIYKLFENIGKGSYAIPGDCGPPLSDLLKGMLEYEPAKRFSIRQIRQHSWFRKKHPPAEAPVPIPPSPDTKDRWRSMTVVPYLEDLHGADEDEDLFDIEDDIIYTQDFTVPGQVPEEEASHNGQRRGLPKAVCMNGTEAAQLSTKSRAEGRAPNPARKACSASSKIRRLSACKQQ

± gives the uncertainty stated by the source.

This series covers variants of B1. In words: STK11 functional score (HeLa growth suppression), rescaled enrichment; synonymous median = 1, nonsense median = 0 (normalised score). Particulars: with HeLa; variant type: missense. An outline of the steps: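 Functional scores are post/pre-selection log ratios corrected to wild type, rescaled to synonymous and nonsense medians, merged over codons and replicate transfections, and given bootstrapped error. They come from POPCode libraries of codon-optimised STK11 integrated by Bxb1 at an AAVS1 landing pad in HeLa, three regions each transfected three times, with BFP-negative, mCherry-positive integrants sorted by FACS and tiled gDNA amplicons sequenced on NextSeq.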
On to MEVVDPQQLGMFTEGELMSVGMDTFIHRIDSTEVIYQPRRKRAKLIGKYLMGDLLGEGSYGKVKEVLDSETLCRRAVKILKKKKLRRIPNGEANVKKEIQLLRRLRHKNVIQLVDVLYNEEKQKMYMVMEYCVCGMQEMLDSVPEKRFPVCQAHGYFCQLIDGLEYLHSQGIVHKDIKPGNLLLTTGGTLKISDLGVAEALHPFAADDTCRTSQGSPAFQPPEIANGLDTFSGFKVDIWSAGVTLYNITTGLYPFEGDNIYKLFENIGKGSYAIPGDCGPPLSDLLKGMLEYEPAKRFSIRQIRQHSWFRKKHPPAEAPVPIPPSPDTKDRWRSMTVVPYLEDLHGADEDEDLFDIEDDAIYTQDFTVPGQVPEEEASHNGQRRGLPKAVCMNGTEAAQLSTKSRAEGRAPNPARKACSASSKIRRLSACKQQ [I360A], for which the STK11 functional score is 1.6 ± 0.15.

With MEVVDPQQLGMFTEGELMSVGMDTFIHRIDSTEVIYQPRRKRAKLIGKYLMGDLLGEGSYGKVKEVLDSETLCRRAVKILKKKKLRRIPNGEANVKKEIQLLRRLRHKNVIQLVDVLYNEEKQKMYMVMEYCVCGMQEMLDSVPEKRFPVCQAHGYFCQLIDGLEYLHSQGIVHKDIKPGNLLLTTGGTLKISDLGVAEALHPFAADDTCRTSQGSPAFQPPEIANGLDTFSGFKVDIWSAGVTLYNITTGLYPFEGDNIYKLFENIGKGSYAIPGDCGPPLSDLLKGMLEYEPAKRFSIRQIRQHSWFRKKHPPAEAPVPIPPSPDTKDRWRSMTVVPYLEDLHGADEDEDLFDIEDEIIYTQDFTVPGQVPEEEASHNGQRRGLPKAVCMNGTEAAQLSTKSRAEGRAPNPARKACSASSKIRRLSACKQQ [D359E], the STK11 functional score came to 0.865 ± 0.47.

For MEVVDPQQLGMFTEGELMSVGMDTFIHRIDSTEVIYQPRRKRAKLIGKYLMGDLLGEGSYGKVKEVLDSETLCRRAVKILKKKKLRRIPNGEANVKKEIQLLRRLRHKNVIQLVDVLYNEEKQKMYMVMEYCVCGMQEMLDSVPEKRFPVCQAHGYFCQLIDGLEYLHSQGIVHKDIKPGNLLLTTGGTLKISDLGVAEALHPFAADDTCRTSQGSPAFQPPEIANGLDTFSGFKVDIWSAGVTLYNITTGLYPFEGDNIYKLFENIGKGSYAIPGDCGPPLSDLLKGMLEYEPAKRFSIRQIRQHSWFRKKHPPAEAPVPIPPSPDTKDRWRSMTVVPYLEDLHGADEDEDLFDIEDTIIYTQDFTVPGQVPEEEASHNGQRRGLPKAVCMNGTEAAQLSTKSRAEGRAPNPARKACSASSKIRRLSACKQQ [D359T], the STK11 functional score came out at 1.57 ± 0.21.

On to MEVVDPQQLGMFTEGELMSVGMDTFIHRIDSTEVIYQPRRKRAKLIGKYLMGDLLGEGSYGKVKEVLDSETLCRRAVKILKKKKLRRIPNGEANVKKEIQLLRRLRHKNVIQLVDVLYNEEKQKMYMVMEYCVCGMQEMLDSVPEKRFPVCQAHGYFCQLIDGLEYLHSQGIVHKDIKPGNLLLTTGGTLKISDLGVAEALHPFAADDTCRTSQGSPAFQPPEIANGLDTFSGFKVDIWSAGVTLYNITTGLYPFEGDNIYKLFENIGKGSYAIPGDCGPPLSDLLKGMLEYEPAKRFSIRQIRQHSWFRKKHPPAEAPVPIPPSPDTKDRWRSMTVVPYLEDLHGADEDEDLFDIEDYIIYTQDFTVPGQVPEEEASHNGQRRGLPKAVCMNGTEAAQLSTKSRAEGRAPNPARKACSASSKIRRLSACKQQ [D359Y], for which the STK11 functional score was 1.13 ± 0.21.

On to MEVVDPQQLGMFTEGELMSVGMDTFIHRIDSTEVIYQPRRKRAKLIGKYLMGDLLGEGSYGKVKEVLDSETLCRRAVKILKKKKLRRIPNGEANVKKEIQLLRRLRHKNVIQLVDVLYNEEKQKMYMVMEYCVCGMQEMLDSVPEKRFPVCQAHGYFCQLIDGLEYLHSQGIVHKDIKPGNLLLTTGGTLKISDLGVAEALHPFAADDTCRTSQGSPAFQPPEIANGLDTFSGFKVDIWSAGVTLYNITTGLYPFEGDNIYKLFENIGKGSYAIPGDCGPPLSDLLKGMLEYEPAKRFSIRQIRQHSWFRKKHPPAEAPVPIPPSPDTKDRWRSMTVVPYLEDLHGADEDEDLFDIEDMIIYTQDFTVPGQVPEEEASHNGQRRGLPKAVCMNGTEAAQLSTKSRAEGRAPNPARKACSASSKIRRLSACKQQ [D359M], for which the STK11 functional score came to 1.6 ± 0.14.

For MEVVDPQQLGMFTEGELMSVGMDTFIHRIDSTEVIYQPRRKRAKLIGKYLMGDLLGEGSYGKVKEVLDSETLCRRAVKILKKKKLRRIPNGEANVKKEIQLLRRLRHKNVIQLVDVLYNEEKQKMYMVMEYCVCGMQEMLDSVPEKRFPVCQAHGYFCQLIDGLEYLHSQGIVHKDIKPGNLLLTTGGTLKISDLGVAEALHPFAADDTCRTSQGSPAFQPPEIANGLDTFSGFKVDIWSAGVTLYNITTGLYPFEGDNIYKLFENIGKGSYAIPGDCGPPLSDLLKGMLEYEPAKRFSIRQIRQHSWFRKKHPPAEAPVPIPPSPDTKDRWRSMTVVPYLEDLHGADEDEDLFDIEDLIIYTQDFTVPGQVPEEEASHNGQRRGLPKAVCMNGTEAAQLSTKSRAEGRAPNPARKACSASSKIRRLSACKQQ [D359L], the STK11 functional score came out at 1.53 ± 0.17.

Turning to MEVVDPQQLGMFTEGELMSVGMDTFIHRIDSTEVIYQPRRKRAKLIGKYLMGDLLGEGSYGKVKEVLDSETLCRRAVKILKKKKLRRIPNGEANVKKEIQLLRRLRHKNVIQLVDVLYNEEKQKMYMVMEYCVCGMQEMLDSVPEKRFPVCQAHGYFCQLIDGLEYLHSQGIVHKDIKPGNLLLTTGGTLKISDLGVAEALHPFAADDTCRTSQGSPAFQPPEIANGLDTFSGFKVDIWSAGVTLYNITTGLYPFEGDNIYKLFENIGKGSYAIPGDCGPPLSDLLKGMLEYEPAKRFSIRQIRQHSWFRKKHPPAEAPVPIPPSPDTKDRWRSMTVVPYLEDLHGADEDEDLFDIEDGIIYTQDFTVPGQVPEEEASHNGQRRGLPKAVCMNGTEAAQLSTKSRAEGRAPNPARKACSASSKIRRLSACKQQ [D359G], the STK11 functional score was 1.36 ± 0.2.

In the case of MEVVDPQQLGMFTEGELMSVGMDTFIHRIDSTEVIYQPRRKRAKLIGKYLMGDLLGEGSYGKVKEVLDSETLCRRAVKILKKKKLRRIPNGEANVKKEIQLLRRLRHKNVIQLVDVLYNEEKQKMYMVMEYCVCGMQEMLDSVPEKRFPVCQAHGYFCQLIDGLEYLHSQGIVHKDIKPGNLLLTTGGTLKISDLGVAEALHPFAADDTCRTSQGSPAFQPPEIANGLDTFSGFKVDIWSAGVTLYNITTGLYPFEGDNIYKLFENIGKGSYAIPGDCGPPLSDLLKGMLEYEPAKRFSIRQIRQHSWFRKKHPPAEAPVPIPPSPDTKDRWRSMTVVPYLEDLHGADEDEDLFDIEDVIIYTQDFTVPGQVPEEEASHNGQRRGLPKAVCMNGTEAAQLSTKSRAEGRAPNPARKACSASSKIRRLSACKQQ [D359V], the STK11 functional score came out at 1.05 ± 0.17.

As to MEVVDPQQLGMFTEGELMSVGMDTFIHRIDSTEVIYQPRRKRAKLIGKYLMGDLLGEGSYGKVKEVLDSETLCRRAVKILKKKKLRRIPNGEANVKKEIQLLRRLRHKNVIQLVDVLYNEEKQKMYMVMEYCVCGMQEMLDSVPEKRFPVCQAHGYFCQLIDGLEYLHSQGIVHKDIKPGNLLLTTGGTLKISDLGVAEALHPFAADDTCRTSQGSPAFQPPEIANGLDTFSGFKVDIWSAGVTLYNITTGLYPFEGDNIYKLFENIGKGSYAIPGDCGPPLSDLLKGMLEYEPAKRFSIRQIRQHSWFRKKHPPAEAPVPIPPSPDTKDRWRSMTVVPYLEDLHGADEDEDLFDIEDWIIYTQDFTVPGQVPEEEASHNGQRRGLPKAVCMNGTEAAQLSTKSRAEGRAPNPARKACSASSKIRRLSACKQQ [D359W], the STK11 functional score was 1.07 ± 0.22.

Turning to MEVVDPQQLGMFTEGELMSVGMDTFIHRIDSTEVIYQPRRKRAKLIGKYLMGDLLGEGSYGKVKEVLDSETLCRRAVKILKKKKLRRIPNGEANVKKEIQLLRRLRHKNVIQLVDVLYNEEKQKMYMVMEYCVCGMQEMLDSVPEKRFPVCQAHGYFCQLIDGLEYLHSQGIVHKDIKPGNLLLTTGGTLKISDLGVAEALHPFAADDTCRTSQGSPAFQPPEIANGLDTFSGFKVDIWSAGVTLYNITTGLYPFEGDNIYKLFENIGKGSYAIPGDCGPPLSDLLKGMLEYEPAKRFSIRQIRQHSWFRKKHPPAEAPVPIPPSPDTKDRWRSMTVVPYLEDLHGADEDEDLFDIEDRIIYTQDFTVPGQVPEEEASHNGQRRGLPKAVCMNGTEAAQLSTKSRAEGRAPNPARKACSASSKIRRLSACKQQ [D359R], the STK11 functional score is 1.52 ± 0.19.

Take MEVVDPQQLGMFTEGELMSVGMDTFIHRIDSTEVIYQPRRKRAKLIGKYLMGDLLGEGSYGKVKEVLDSETLCRRAVKILKKKKLRRIPNGEANVKKEIQLLRRLRHKNVIQLVDVLYNEEKQKMYMVMEYCVCGMQEMLDSVPEKRFPVCQAHGYFCQLIDGLEYLHSQGIVHKDIKPGNLLLTTGGTLKISDLGVAEALHPFAADDTCRTSQGSPAFQPPEIANGLDTFSGFKVDIWSAGVTLYNITTGLYPFEGDNIYKLFENIGKGSYAIPGDCGPPLSDLLKGMLEYEPAKRFSIRQIRQHSWFRKKHPPAEAPVPIPPSPDTKDRWRSMTVVPYLEDLHGADEDEDLFDIEDHIIYTQDFTVPGQVPEEEASHNGQRRGLPKAVCMNGTEAAQLSTKSRAEGRAPNPARKACSASSKIRRLSACKQQ [D359H]: the STK11 functional score amounted to 1.21 ± 0.39.

For MEVVDPQQLGMFTEGELMSVGMDTFIHRIDSTEVIYQPRRKRAKLIGKYLMGDLLGEGSYGKVKEVLDSETLCRRAVKILKKKKLRRIPNGEANVKKEIQLLRRLRHKNVIQLVDVLYNEEKQKMYMVMEYCVCGMQEMLDSVPEKRFPVCQAHGYFCQLIDGLEYLHSQGIVHKDIKPGNLLLTTGGTLKISDLGVAEALHPFAADDTCRTSQGSPAFQPPEIANGLDTFSGFKVDIWSAGVTLYNITTGLYPFEGDNIYKLFENIGKGSYAIPGDCGPPLSDLLKGMLEYEPAKRFSIRQIRQHSWFRKKHPPAEAPVPIPPSPDTKDRWRSMTVVPYLEDLHGADEDEDLFDIEDIIIYTQDFTVPGQVPEEEASHNGQRRGLPKAVCMNGTEAAQLSTKSRAEGRAPNPARKACSASSKIRRLSACKQQ [D359I], the STK11 functional score was 0.856 ± 0.075.

For MEVVDPQQLGMFTEGELMSVGMDTFIHRIDSTEVIYQPRRKRAKLIGKYLMGDLLGEGSYGKVKEVLDSETLCRRAVKILKKKKLRRIPNGEANVKKEIQLLRRLRHKNVIQLVDVLYNEEKQKMYMVMEYCVCGMQEMLDSVPEKRFPVCQAHGYFCQLIDGLEYLHSQGIVHKDIKPGNLLLTTGGTLKISDLGVAEALHPFAADDTCRTSQGSPAFQPPEIANGLDTFSGFKVDIWSAGVTLYNITTGLYPFEGDNIYKLFENIGKGSYAIPGDCGPPLSDLLKGMLEYEPAKRFSIRQIRQHSWFRKKHPPAEAPVPIPPSPDTKDRWRSMTVVPYLEDLHGADEDEDLFDIEDPIIYTQDFTVPGQVPEEEASHNGQRRGLPKAVCMNGTEAAQLSTKSRAEGRAPNPARKACSASSKIRRLSACKQQ [D359P], the STK11 functional score is 1.5 ± 0.3.

Consider MEVVDPQQLGMFTEGELMSVGMDTFIHRIDSTEVIYQPRRKRAKLIGKYLMGDLLGEGSYGKVKEVLDSETLCRRAVKILKKKKLRRIPNGEANVKKEIQLLRRLRHKNVIQLVDVLYNEEKQKMYMVMEYCVCGMQEMLDSVPEKRFPVCQAHGYFCQLIDGLEYLHSQGIVHKDIKPGNLLLTTGGTLKISDLGVAEALHPFAADDTCRTSQGSPAFQPPEIANGLDTFSGFKVDIWSAGVTLYNITTGLYPFEGDNIYKLFENIGKGSYAIPGDCGPPLSDLLKGMLEYEPAKRFSIRQIRQHSWFRKKHPPAEAPVPIPPSPDTKDRWRSMTVVPYLEDLHGADEDEDLFDIEDSIIYTQDFTVPGQVPEEEASHNGQRRGLPKAVCMNGTEAAQLSTKSRAEGRAPNPARKACSASSKIRRLSACKQQ [D359S], for which the STK11 functional score came to 1.15 ± 0.22.

The record behind these values is the supplement of paper PMC12338614.
